Measurements from publication PMC7192610.
Like-named read-outs stand apart in the source and are kept apart here.

Experiments:
GST-p53(1-393) [1] = target: T1, GST-p53(1-393) (Homo sapiens, UniProt P04637 1-393); test: EMSA
GST-p53(1-393) [2] = target: T1, GST-p53(1-393); test: EMSA; remark: listed apart in the source

T1 sequence (P04637 whole entry): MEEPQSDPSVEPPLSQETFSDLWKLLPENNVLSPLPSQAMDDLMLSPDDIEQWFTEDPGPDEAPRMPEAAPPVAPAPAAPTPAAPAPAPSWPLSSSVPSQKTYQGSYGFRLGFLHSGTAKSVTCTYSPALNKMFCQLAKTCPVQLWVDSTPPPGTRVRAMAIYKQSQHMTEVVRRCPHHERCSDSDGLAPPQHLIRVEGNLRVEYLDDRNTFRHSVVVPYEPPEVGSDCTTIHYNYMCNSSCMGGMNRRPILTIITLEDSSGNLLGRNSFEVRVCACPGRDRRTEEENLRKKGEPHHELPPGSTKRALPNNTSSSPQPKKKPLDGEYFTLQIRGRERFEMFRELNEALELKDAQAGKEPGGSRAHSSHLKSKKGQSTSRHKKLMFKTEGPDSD

B1: CCNG1 L2 (dsDNA)
DNA 1: TACAAGGAGGCTTTTCATCCGCACAAGCCCAGGCTAGTCCGAGGCTGGAGGGGCGGAGCC
DNA 2: GGCTCCGCCCCTCCAGCCTCGGACTAGCCTGGGCTTGTGCGGATGAAAAGCCTCCTTGTA
- binding result (GST-p53(1-393) [1]): binds

B2: CCNG1 WT (dsDNA)
DNA 1: AAACTCTACCGCTGTTGTGAGCACAAGCCCAGGCTAGTCCGAGGCTGGAGGGGCGGAGCC
DNA 2: GGCTCCGCCCCTCCAGCCTCGGACTAGCCTGGGCTTGTGCTCACAACAGCGGTAGAGTTT
- binding result (GST-p53(1-393) [2]): binds
